In PMC4633494, “An antennal carboxylesterase from Drosophila melanogaster, esterase 6, is a candidate odorant-degrading enzyme toward food odorants” (Frontiers in Physiology, 2015):

Assays:
Conditions in all cases: concentrated culture medium, enzyme titrated, GC-MS assay at pH 8.0, 25 mM Tris-HCl, 200 µM substrate, BSA, 5% ethanol
[1] = substrate: CCCOC(=O)CCC; assay: cells, lysate or membranes
[2] = substrate: CCCCCCCCOC(=O)CC; assay: competitive inhibition of 4-nitrophenyl acetate hydrolysis (Ki taken as Km); kcat from GC-MS substrate loss; assay type: biochemical, Drosophila melanogaster
Text: (§1) competitive inhibition of 4-nitrophenyl acetate hydrolysis (Ki taken as Km); kcat from GC-MS substrate loss on EST-6 (EST-6^F), esterase 6

[3] = substrate: CCCCCOC(C)=O; assay: as above; assay type: biochemical, Drosophila melanogaster
Text: as §1

B1: EST-6 (EST-6^F), esterase 6 (Drosophila melanogaster) (protein)
chain: SDTDDPLLVQLPQGKLRGRDNGSYYSYESIPYAEPPTGDLRFEAPEPYKQKWSDIFDATKTPVACLQWDQFTPGANKLVGEEDCLTVSVYKPKNSKRNSFPVVAHIHGGAFMFGAAWQNGHENVMREGKFILVKISYRLGPLGFVSTGDRDLPGNYGLKDQRLALKWIKQNIASFGGEPQNVLLVGHSAGGASVHLQMLREDFGQLARAAFSFSGNALDPWVIQKGARGRAFELGRNVGCESAEDSTSLKKCLKSKPASELVTAVRKFLIFSYVPFAPFSPVLEPSDAPDAIITQDPRDVIKSGKFGQVPWAVSYVTEDGGYNAALLLKERKSGIVIDDLNERWLELAPYLLFYRDTKTKKDMDDYSRKIKQEYIGNQRFDIESYSELQRLFTDILFKNSTQESLDLHRKYGKSPAYAYVYDNPAEKGIAQVLANRTDYDFGTVHGDDYFLIFENFVRDVEMRPDEQIISRNFINMLADFASSDNGSLKYGECDFKDNVGSEKFQLLAIYIDGCQNRQHVEFP
notes: natural allele expressed behind its own signal peptide (secreted) with BacuVance baculovirus system (Genscript); no tag told
Q: How did the Km [1] turn out when B1 was run?
A: 18.3 mM

Q: What about the kcat [1] of the same protein?
A: 1670 s⁻¹

Q: And the Km [2]?
A: 3.16 mM

Q: What about the kcat [2] of the same protein?
A: 4520 ± 1680 s⁻¹

Q: What about the Km [3] of the same protein?
A: 2.93 mM

Q: What about the kcat [3] of the same protein?
A: 969 ± 215 s⁻¹
